Source: paper PMC9253567, “The Role of ZAP and TRIM25 RNA Binding in Restricting Viral Translation” (Frontiers in Cellular and Infection Microbiology, 2022)

B1: FLAG-tagged ZAPS C88R (ZnF 2 mutant) (natural protein, human, UniProt Q7Z2W4-2 1-699, looked up)
chain: MADPEVCCFITKILCAHGGRMALDALLQEIALSEPQLCEVLQVAGPDRFVVLETGGEAGITRSVVATTRARVCRRKYCQRPCDNLHLRKLNLLGRCNYSQSERNLCKYSHEVLSEENFKVLKNHELSGLNKEELAVLLLQSDPFFMPEICKSYKGEGRQQICNQQPPCSRLHICDHFTRGNCRFPNCLRSHNLMDRKVLAIMREHGLNPDVVQNIQDICNSKHMQKNPPGPRAPSSHRRNMAYRARSKSRDRFFQGSQEFLASASASAERSCTPSPDQISHRASLEDAPVDDLTRKFTYLGSQDRARPPSGSSKATDLGGTSQAGTSQRFLENGSQEDLLHGNPGSTYLASNSTSAPNWKSLTSWTNDQGARRKTVFSPTLPAARSSLGSLQTPEAVTTRKGTGLLSSDYRIINGKSGTQDIQPGPLFNNNADGVATDITSTRSLNYKSTSSGHREISSPRIQDAGPASRDVQATGRIADDADPRVALVNDSLSDVTSTTSSRVDDHDSEEICLDHLCKGCPLNGSCSKVHFHLPYRWQMLIGKTWTDFEHMETIEKGYCNPGIHLCSVGSYTINFRVMSCDSFPIRRLSTPSSVTKPANSVFTTKWIWYWKNESGTWIQYGEEKDKRKNSNVDSSYLESLYQSCPRGVVPFQAGSRNYELSFQGMIQTNIASKTQKDVIRRPTFVPQWYVQQMKRGPE
notes: zinc finger antiviral protein (ZAP), short isoform ZAPS, cloned from pTRIP-TagRFP-hZAPS; source: ZAP KO 293T cells, transfected (pcDNA3.1-3XFLAG), in lysate; not shown: 3XFLAG, N-terminal, kept
B2: FLAG-tagged ZAPS H176A/F184A/R189A (natural protein, human, UniProt Q7Z2W4-2 1-699, looked up)
chain: MADPEVCCFITKILCAHGGRMALDALLQEIALSEPQLCEVLQVAGPDRFVVLETGGEAGITRSVVATTRARVCRRKYCQRPCDNLHLCKLNLLGRCNYSQSERNLCKYSHEVLSEENFKVLKNHELSGLNKEELAVLLLQSDPFFMPEICKSYKGEGRQQICNQQPPCSRLHICDAFTRGNCRAPNCLASHNLMDRKVLAIMREHGLNPDVVQNIQDICNSKHMQKNPPGPRAPSSHRRNMAYRARSKSRDRFFQGSQEFLASASASAERSCTPSPDQISHRASLEDAPVDDLTRKFTYLGSQDRARPPSGSSKATDLGGTSQAGTSQRFLENGSQEDLLHGNPGSTYLASNSTSAPNWKSLTSWTNDQGARRKTVFSPTLPAARSSLGSLQTPEAVTTRKGTGLLSSDYRIINGKSGTQDIQPGPLFNNNADGVATDITSTRSLNYKSTSSGHREISSPRIQDAGPASRDVQATGRIADDADPRVALVNDSLSDVTSTTSSRVDDHDSEEICLDHLCKGCPLNGSCSKVHFHLPYRWQMLIGKTWTDFEHMETIEKGYCNPGIHLCSVGSYTINFRVMSCDSFPIRRLSTPSSVTKPANSVFTTKWIWYWKNESGTWIQYGEEKDKRKNSNVDSSYLESLYQSCPRGVVPFQAGSRNYELSFQGMIQTNIASKTQKDVIRRPTFVPQWYVQQMKRGPE
notes: zinc finger antiviral protein (ZAP), short isoform ZAPS, cloned from pTRIP-TagRFP-hZAPS; also called ZAPS HFR; HFR; source: ZAP KO 293T cells, transfected (pcDNA3.1-3XFLAG), in lysate; not shown: 3XFLAG, N-terminal, kept
B3: FLAG-tagged ZAPS C96A/Y98A (natural protein, human, UniProt Q7Z2W4-2 1-699, looked up)
chain: MADPEVCCFITKILCAHGGRMALDALLQEIALSEPQLCEVLQVAGPDRFVVLETGGEAGITRSVVATTRARVCRRKYCQRPCDNLHLCKLNLLGRANASQSERNLCKYSHEVLSEENFKVLKNHELSGLNKEELAVLLLQSDPFFMPEICKSYKGEGRQQICNQQPPCSRLHICDHFTRGNCRFPNCLRSHNLMDRKVLAIMREHGLNPDVVQNIQDICNSKHMQKNPPGPRAPSSHRRNMAYRARSKSRDRFFQGSQEFLASASASAERSCTPSPDQISHRASLEDAPVDDLTRKFTYLGSQDRARPPSGSSKATDLGGTSQAGTSQRFLENGSQEDLLHGNPGSTYLASNSTSAPNWKSLTSWTNDQGARRKTVFSPTLPAARSSLGSLQTPEAVTTRKGTGLLSSDYRIINGKSGTQDIQPGPLFNNNADGVATDITSTRSLNYKSTSSGHREISSPRIQDAGPASRDVQATGRIADDADPRVALVNDSLSDVTSTTSSRVDDHDSEEICLDHLCKGCPLNGSCSKVHFHLPYRWQMLIGKTWTDFEHMETIEKGYCNPGIHLCSVGSYTINFRVMSCDSFPIRRLSTPSSVTKPANSVFTTKWIWYWKNESGTWIQYGEEKDKRKNSNVDSSYLESLYQSCPRGVVPFQAGSRNYELSFQGMIQTNIASKTQKDVIRRPTFVPQWYVQQMKRGPE
notes: zinc finger antiviral protein (ZAP), short isoform ZAPS, cloned from pTRIP-TagRFP-hZAPS; also called ZAPS CY; CY; source: ZAP KO 293T cells, transfected (pcDNA3.1-3XFLAG), in lysate; not shown: 3XFLAG, N-terminal, kept
B4: FLAG-tagged ZAPS E148A/K151A/R170A (natural protein, human, UniProt Q7Z2W4-2 1-699, looked up)
chain: MADPEVCCFITKILCAHGGRMALDALLQEIALSEPQLCEVLQVAGPDRFVVLETGGEAGITRSVVATTRARVCRRKYCQRPCDNLHLCKLNLLGRCNYSQSERNLCKYSHEVLSEENFKVLKNHELSGLNKEELAVLLLQSDPFFMPAICASYKGEGRQQICNQQPPCSALHICDHFTRGNCRFPNCLRSHNLMDRKVLAIMREHGLNPDVVQNIQDICNSKHMQKNPPGPRAPSSHRRNMAYRARSKSRDRFFQGSQEFLASASASAERSCTPSPDQISHRASLEDAPVDDLTRKFTYLGSQDRARPPSGSSKATDLGGTSQAGTSQRFLENGSQEDLLHGNPGSTYLASNSTSAPNWKSLTSWTNDQGARRKTVFSPTLPAARSSLGSLQTPEAVTTRKGTGLLSSDYRIINGKSGTQDIQPGPLFNNNADGVATDITSTRSLNYKSTSSGHREISSPRIQDAGPASRDVQATGRIADDADPRVALVNDSLSDVTSTTSSRVDDHDSEEICLDHLCKGCPLNGSCSKVHFHLPYRWQMLIGKTWTDFEHMETIEKGYCNPGIHLCSVGSYTINFRVMSCDSFPIRRLSTPSSVTKPANSVFTTKWIWYWKNESGTWIQYGEEKDKRKNSNVDSSYLESLYQSCPRGVVPFQAGSRNYELSFQGMIQTNIASKTQKDVIRRPTFVPQWYVQQMKRGPE
notes: zinc finger antiviral protein (ZAP), short isoform ZAPS, cloned from pTRIP-TagRFP-hZAPS; also called ZAPS EKR; EKR; source: ZAP KO 293T cells, transfected (pcDNA3.1-3XFLAG), in lysate; not shown: 3XFLAG, N-terminal, kept
B5: FLAG-tagged ZAPS V72A/Y108A/F144A (natural protein, human, UniProt Q7Z2W4-2 1-699, looked up)
chain: MADPEVCCFITKILCAHGGRMALDALLQEIALSEPQLCEVLQVAGPDRFVVLETGGEAGITRSVVATTRARACRRKYCQRPCDNLHLCKLNLLGRCNYSQSERNLCKASHEVLSEENFKVLKNHELSGLNKEELAVLLLQSDPAFMPEICKSYKGEGRQQICNQQPPCSRLHICDHFTRGNCRFPNCLRSHNLMDRKVLAIMREHGLNPDVVQNIQDICNSKHMQKNPPGPRAPSSHRRNMAYRARSKSRDRFFQGSQEFLASASASAERSCTPSPDQISHRASLEDAPVDDLTRKFTYLGSQDRARPPSGSSKATDLGGTSQAGTSQRFLENGSQEDLLHGNPGSTYLASNSTSAPNWKSLTSWTNDQGARRKTVFSPTLPAARSSLGSLQTPEAVTTRKGTGLLSSDYRIINGKSGTQDIQPGPLFNNNADGVATDITSTRSLNYKSTSSGHREISSPRIQDAGPASRDVQATGRIADDADPRVALVNDSLSDVTSTTSSRVDDHDSEEICLDHLCKGCPLNGSCSKVHFHLPYRWQMLIGKTWTDFEHMETIEKGYCNPGIHLCSVGSYTINFRVMSCDSFPIRRLSTPSSVTKPANSVFTTKWIWYWKNESGTWIQYGEEKDKRKNSNVDSSYLESLYQSCPRGVVPFQAGSRNYELSFQGMIQTNIASKTQKDVIRRPTFVPQWYVQQMKRGPE
notes: zinc finger antiviral protein (ZAP), short isoform ZAPS, cloned from pTRIP-TagRFP-hZAPS; also called ZAPS VYF; VYF; source: ZAP KO 293T cells, transfected (pcDNA3.1-3XFLAG), in lysate; not shown: 3XFLAG, N-terminal, kept
B6: FLAG-tagged ZAPS K107A/Y108A (natural protein, human, UniProt Q7Z2W4-2 1-699, looked up)
chain: MADPEVCCFITKILCAHGGRMALDALLQEIALSEPQLCEVLQVAGPDRFVVLETGGEAGITRSVVATTRARVCRRKYCQRPCDNLHLCKLNLLGRCNYSQSERNLCAASHEVLSEENFKVLKNHELSGLNKEELAVLLLQSDPFFMPEICKSYKGEGRQQICNQQPPCSRLHICDHFTRGNCRFPNCLRSHNLMDRKVLAIMREHGLNPDVVQNIQDICNSKHMQKNPPGPRAPSSHRRNMAYRARSKSRDRFFQGSQEFLASASASAERSCTPSPDQISHRASLEDAPVDDLTRKFTYLGSQDRARPPSGSSKATDLGGTSQAGTSQRFLENGSQEDLLHGNPGSTYLASNSTSAPNWKSLTSWTNDQGARRKTVFSPTLPAARSSLGSLQTPEAVTTRKGTGLLSSDYRIINGKSGTQDIQPGPLFNNNADGVATDITSTRSLNYKSTSSGHREISSPRIQDAGPASRDVQATGRIADDADPRVALVNDSLSDVTSTTSSRVDDHDSEEICLDHLCKGCPLNGSCSKVHFHLPYRWQMLIGKTWTDFEHMETIEKGYCNPGIHLCSVGSYTINFRVMSCDSFPIRRLSTPSSVTKPANSVFTTKWIWYWKNESGTWIQYGEEKDKRKNSNVDSSYLESLYQSCPRGVVPFQAGSRNYELSFQGMIQTNIASKTQKDVIRRPTFVPQWYVQQMKRGPE
notes: zinc finger antiviral protein (ZAP), short isoform ZAPS, cloned from pTRIP-TagRFP-hZAPS; also called ZAPS KY; KY; source: ZAP KO 293T cells, transfected (pcDNA3.1-3XFLAG), in lysate; not shown: 3XFLAG, N-terminal, kept
B7: FLAG-tagged ZAPL C96A/Y98A (natural protein, human, UniProt Q7Z2W4-1 1-902, looked up)
chain: MADPEVCCFITKILCAHGGRMALDALLQEIALSEPQLCEVLQVAGPDRFVVLETGGEAGITRSVVATTRARVCRRKYCQRPCDNLHLCKLNLLGRANASQSERNLCKYSHEVLSEENFKVLKNHELSGLNKEELAVLLLQSDPFFMPEICKSYKGEGRQQICNQQPPCSRLHICDHFTRGNCRFPNCLRSHNLMDRKVLAIMREHGLNPDVVQNIQDICNSKHMQKNPPGPRAPSSHRRNMAYRARSKSRDRFFQGSQEFLASASASAERSCTPSPDQISHRASLEDAPVDDLTRKFTYLGSQDRARPPSGSSKATDLGGTSQAGTSQRFLENGSQEDLLHGNPGSTYLASNSTSAPNWKSLTSWTNDQGARRKTVFSPTLPAARSSLGSLQTPEAVTTRKGTGLLSSDYRIINGKSGTQDIQPGPLFNNNADGVATDITSTRSLNYKSTSSGHREISSPRIQDAGPASRDVQATGRIADDADPRVALVNDSLSDVTSTTSSRVDDHDSEEICLDHLCKGCPLNGSCSKVHFHLPYRWQMLIGKTWTDFEHMETIEKGYCNPGIHLCSVGSYTINFRVMSCDSFPIRRLSTPSSVTKPANSVFTTKWIWYWKNESGTWIQYGEEKDKRKNSNVDSSYLESLYQSCPRGVVPFQAGSRNYELSFQGMIQTNIASKTQKDVIRRPTFVPQWYVQQMKRGPDHQPAKTSSVSLTATFRPQEDFCFLSSKKYKLSEIHHLHPEYVRVSEHFKASMKNFKIEKIKKIENSELLDKFTWKKSQMKEEGKLLFYATSRAYVESICSNNFDSFLHETHENKYGKGIYFAKDAIYSHKNCPYDAKNVVMFVAQVLVGKFTEGNITYTSPPPQFDSCVDTRSNPSVFVIFQKDQVYPQYVIEYTEDKACVIS
notes: zinc finger antiviral protein (ZAP), long isoform ZAPL, cloned from pTRIP-TagRFP-hZAPL; also called ZAPL CY; CY; source: ZAP KO 293T cells, transfected (pcDNA3.1-3XFLAG), in lysate; not shown: 3XFLAG, N-terminal, kept

target: T1, myc-tagged TRIM25 WT (tripartite motif-containing protein 25) (UniProt Q14258 1-630); assay: co-IP; myc IP (anti-myc beads) of myc-TRIM25 WT from lysates of ZAP KO 293T cells co-transfected with FLAG-ZAPS or FLAG-ZAPL WT or mutants; FLAG-ZAP detected by immunoblot; FLAG IP buffer (100 mM Tris-HCl 8.0, 150 mM NaCl, 5 mM EDTA, 1 mM DTT, 5% glycerol, 0.1% NP-40), 4°C, 45 min; FLAG IP band divided by myc IP band (ImageJ); conditions: partners not purified
T1 construct: tripartite motif-containing protein 25 (TRIM25), ubiquitin E3 ligase; full-length TRIM25 provided by J. U. Jung (Gack et al., 2007); source: ZAP KO 293T or TRIM25 KO 293T cells, transfected (pcDNA3.1-myc), in lysate; not shown: myc, N-terminal, kept
T1 sequence (Q14258 whole entry): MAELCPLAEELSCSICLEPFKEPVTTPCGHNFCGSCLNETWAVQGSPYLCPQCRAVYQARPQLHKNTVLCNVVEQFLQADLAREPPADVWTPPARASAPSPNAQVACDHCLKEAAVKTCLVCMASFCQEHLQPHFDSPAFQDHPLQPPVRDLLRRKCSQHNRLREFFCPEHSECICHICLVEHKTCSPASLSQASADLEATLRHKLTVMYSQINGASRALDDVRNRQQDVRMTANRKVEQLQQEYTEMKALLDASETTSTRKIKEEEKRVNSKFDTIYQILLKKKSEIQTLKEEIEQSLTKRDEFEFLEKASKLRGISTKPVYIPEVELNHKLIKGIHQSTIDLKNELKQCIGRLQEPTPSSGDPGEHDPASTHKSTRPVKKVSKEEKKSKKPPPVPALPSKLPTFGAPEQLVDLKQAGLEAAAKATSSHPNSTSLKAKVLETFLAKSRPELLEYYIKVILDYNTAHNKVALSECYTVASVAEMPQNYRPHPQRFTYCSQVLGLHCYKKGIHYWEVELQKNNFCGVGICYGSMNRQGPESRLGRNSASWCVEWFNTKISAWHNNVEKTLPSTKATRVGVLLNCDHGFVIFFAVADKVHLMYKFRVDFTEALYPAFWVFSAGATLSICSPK

Binder	ZAP-TRIM25 interaction (co-IP, FLAG-ZAP band over myc-TRIM25 band, ImageJ)
B1	0.45
B2	0.205
B3	0.55
B4	0.189
B5	0.792
B6	0.33
B7	0.329
